Source: publication PMC9136605

Target: human lactate dehydrogenase C (LDHC), recombinant wild type with C-terminal His6-tag (human) (UniProt P07864)

Sequence of human lactate dehydrogenase C (LDHC), recombinant wild type with C-terminal His6-tag (P07864 whole entry): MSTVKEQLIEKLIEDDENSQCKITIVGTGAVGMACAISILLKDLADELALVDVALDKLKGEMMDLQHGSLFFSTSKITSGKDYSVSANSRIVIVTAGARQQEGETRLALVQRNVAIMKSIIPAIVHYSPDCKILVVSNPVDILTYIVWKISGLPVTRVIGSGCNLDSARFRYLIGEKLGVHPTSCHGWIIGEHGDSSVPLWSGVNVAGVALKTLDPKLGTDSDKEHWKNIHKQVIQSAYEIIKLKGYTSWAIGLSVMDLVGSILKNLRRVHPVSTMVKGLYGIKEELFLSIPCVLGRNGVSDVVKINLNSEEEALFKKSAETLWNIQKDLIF

Work on “human lactate dehydrogenase C (LDHC), recombinant wild type with C-terminal His6-tag (from UniProt P07864 1-332) (enzyme)” yielded a stoichiometry N of 4.
